# Assay results: IntAct's records for PubMed 23183827
# Target: syua_human SNCA (UniProt P37840)
substance,measurement,value
"Leucine-rich repeat serine/threonine-protein kinase 2 (Homo sapiens), Q5S007 G2019S",effect of a mutation on the interaction,increasing interaction
